Measured values as given in patent US20260193376A1 (Novo Nordisk, published 2026).
Residue numbers refer to the chain shown, from its start. Blank lines part the entries; values can stand above or below the binder they belong to.

How the values were obtained:
[1] = target: T1, human plasma-derived Factor IXa (human, UniProt P00740 47-191; P00740 227-461); test: cell-based or functional assay
[2] = target: T2, human coagulation Factor IX (human, UniProt P00740 47-461); test: ITC, 37 °C, pH 7.4, antibody injected into FIX
T2 construct: also called FIX
T2 sequence (P00740 47-461 T194A limits assumed): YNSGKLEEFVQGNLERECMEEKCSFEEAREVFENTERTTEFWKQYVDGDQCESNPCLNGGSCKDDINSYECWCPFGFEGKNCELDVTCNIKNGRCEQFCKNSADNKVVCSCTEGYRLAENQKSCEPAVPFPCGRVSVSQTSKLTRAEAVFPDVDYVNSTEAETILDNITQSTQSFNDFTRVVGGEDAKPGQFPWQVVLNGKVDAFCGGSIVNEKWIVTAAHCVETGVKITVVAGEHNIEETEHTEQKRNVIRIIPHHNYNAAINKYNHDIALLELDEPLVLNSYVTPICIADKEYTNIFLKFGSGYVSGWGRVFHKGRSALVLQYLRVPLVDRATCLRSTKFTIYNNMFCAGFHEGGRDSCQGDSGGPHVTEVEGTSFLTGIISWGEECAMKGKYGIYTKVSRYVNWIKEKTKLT
Description: (§1) Binding affinities for anti-FIX(a) and anti-FX(a) antibodies were measured by isothermal titration calorimetry […] by using a PEAQ-ITC calorimeter (Malvern, UK). The experiments were conducted at 37° C. and pH 7.4 using 25 mM Tris, 150 mM NaCl, 5 mM CaCl₂ (Tris-buffer). The sample cell (200 μl) contained either FIX, FIXa, or FX (macromolecule) and anti-FIX(a) and anti-FX(a) antibodies (ligand) were injected via a syringe (40 μl). All proteins were extensively dialyzed in Tris-buffer prior to measurements to secure matched buffer conditions. A thermal equilibration step was followed by a 60 s delay and subsequently an initial 0.2 μl injection of antibody, followed by 12-16 injections of 1.5-3 μl of antibody at an interval of 120 s. The stirring speed was maintained at 750 rpm, and the reference power is kept constant at 5-10 μcal/s. The heat associated with each injection of antibody is integrated and plotted against the molar ratio of ligand to macromolecule. The resulting isotherm is fitted to a one-site binding model to obtain the affinity (KD), stoichiometry (n), and enthalpy of interaction (ΔH) using the software provided by the manufacturer. Experiments were performed in at least duplicates.

[3] = target: T1, human plasma-derived Factor IXa; test: ITC, 37 °C, pH 7.4, antibody injected into FIXa
Description: as §1

[4] = target: T3, randomly biotinylated human FIXa (human, UniProt P00740 47-191; P00740 227-461, randomly biotinylated (NHS-d-biotin)); test: BLI (Octet) in-tandem binning on biotinylated FIXa, 330 nM each; competitor (1st antibody): 224F3
T3 sequence (P00740 47-191, chain 1 of 2): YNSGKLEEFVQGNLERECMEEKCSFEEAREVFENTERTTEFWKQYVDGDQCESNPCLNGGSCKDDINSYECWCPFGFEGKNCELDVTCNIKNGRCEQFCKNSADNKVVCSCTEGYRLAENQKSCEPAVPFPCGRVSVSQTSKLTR
T3 sequence (P00740 227-461, chain 2 of 2): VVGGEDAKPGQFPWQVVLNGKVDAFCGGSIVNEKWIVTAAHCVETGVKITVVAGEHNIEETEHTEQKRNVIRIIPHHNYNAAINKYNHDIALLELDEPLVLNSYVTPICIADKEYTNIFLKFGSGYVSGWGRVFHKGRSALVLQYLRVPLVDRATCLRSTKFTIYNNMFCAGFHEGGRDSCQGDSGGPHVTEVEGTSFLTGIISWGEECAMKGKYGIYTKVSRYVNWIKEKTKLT
Description: (§2) Binning experiments were performed using Octet fortebio systems (HTX, Red384), based on the principle of Bio-Layer Interferometry, and equipped with streptavidin sensors (Pall Life Sciences, Menlo Park, CA), and using 8-channel mode. The binning assays were performed using a modified in-tandem setup. Briefly, (1) 370 nM randomly biotinylated human FIXa (biotinylated using NHS-d-biotin from Sigma H1759 and human FIXa obtained from Haematologic Technologies, Essex Junction, VT) was captured by streptavidin tips (dip and read biosensors Part NO:18-5019, Pall Life Sciences, Menlo Park, CA) for 5 minutes, (2) 330 nM of a first bivalent anti-FIXa antibody was then offered to the streptavidin tips, and incubated for 10 minutes until the biotinylated FIXa were fully saturated and (3) the tips were then offered to an equimolar solution of 330 nM of the first antibody and 330 nM of a second bivalent anti-FIXa antibody for 5 minutes. […] Unspecific binding were evaluated by including an unrelated human IgG4 bivalent antibody as first and second antibody control.

[5] = target: T3, randomly biotinylated human FIXa; test: BLI (Octet) in-tandem binning on biotinylated FIXa, 330 nM each; competitor (1st antibody): mAb01-1767
Description: as §2

[6] = target: T3, randomly biotinylated human FIXa; test: BLI (Octet) in-tandem binning on biotinylated FIXa, 330 nM each; competitor (1st antibody): mAb01-2434
Description: as §2

[7] = target: T3, randomly biotinylated human FIXa; test: BLI (Octet) in-tandem binning on biotinylated FIXa, 330 nM each; competitor (1st antibody): hIgG4 (control)
Description: as §2

[8] = target: T1, human plasma-derived Factor IXa; test: cell-based or functional assay; remark: listed apart in the source
[9] = target: T4, human coagulation Factor X (human, UniProt P00742 41-179; P00742 183-488); test: ITC, 37 °C, pH 7.4, antibody injected into FX
T4 construct: also called FX
T4 sequence (P00742 41-179, chain 1 of 2): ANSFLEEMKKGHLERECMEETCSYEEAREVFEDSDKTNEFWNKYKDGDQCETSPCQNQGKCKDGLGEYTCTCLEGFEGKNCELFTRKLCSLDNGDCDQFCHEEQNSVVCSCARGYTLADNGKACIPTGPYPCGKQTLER
T4 sequence (P00742 183-488, chain 2 of 2): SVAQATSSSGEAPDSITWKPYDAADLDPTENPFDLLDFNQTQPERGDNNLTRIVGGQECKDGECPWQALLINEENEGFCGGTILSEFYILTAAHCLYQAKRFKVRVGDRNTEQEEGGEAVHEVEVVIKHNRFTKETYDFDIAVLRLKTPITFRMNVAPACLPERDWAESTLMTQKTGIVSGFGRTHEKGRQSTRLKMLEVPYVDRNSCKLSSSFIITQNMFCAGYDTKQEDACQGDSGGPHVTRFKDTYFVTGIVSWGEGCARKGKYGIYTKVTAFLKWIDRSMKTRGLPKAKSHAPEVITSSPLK
Description: as §1

T1 sequence (P00740 47-191, chain 1 of 2): as the sequence (P00740 47-191, chain 1 of 2) above
T1 sequence (P00740 227-461, chain 2 of 2): as the sequence (P00740 227-461, chain 2 of 2) above

Maximum stimulation (fold), FXa generation assay with bispecific antibody; maximum at 7980 nM [1]: 21100 fold
B1: bimAb05-0745 (bispecific antibody, V domains shown)
VH 1: EVQLVESGGGLVQPGRSLRLSCAASGFTFHDYAMHWVRQVPGKGLEWVSGISWKGDIGGYVDSVKGRFTISRDNEKNSLYLQMNSLRAEDTALYYCVKSYGSGSFYNAFDSWGQGTLVTVSS
VL 1: DIQMTQSPSTLSASVGDRVTITCRASQSISSWLAWYQQKPGKAPKFLIYKASRLDRGTPSRFSGSGSGTEFSLTISSLQPDDFATYYCLEYSSYIRTFGQGTKVEIK
VH 2: EVQLVQSGAEVKKPGESLRISCKGSGYSFSTSWIVWVRQMPGKGLEWMGMIDPSDSFTSYSPSFQGHVTISADKSISTAYLQWSSLKASDTAMYYCARLHYYNSEEFDVWGQGTLVTVSS
VL 2: EIVLTQSPGTLSLSPGERATLSCRASQSVSSSYLAWYQQKPGQAPRLLIYGQSSRTRGIPDRFSGSGSGTDFTLTISRLEPEDFAVYYCQQFGDSQLFTFGQGTKLEIK

Maximum stimulation (fold), FXa generation assay with bispecific antibody; maximum at 7600 nM [1]: 26300 fold
B2: bimAb05-2113 (bispecific antibody, V domains shown)
VH 1: B1 VH 1 with R19K, H30D, E75A, M83L, V97A
VL 1: B1 VL 1 with V15A, R18E, F46L, R53K, T58V, S77D
VH 2: B1 VH 2 with V35S, F57Y, L115M
VL 2: B1 VL 2 with F92Y

Maximum stimulation (fold), FXa generation assay with bispecific antibody; maximum at 3717 nM [1]: 14600 fold
B3: bimAb05-0746 (bispecific antibody, V domains shown)
VH 1: B1 VH 1
VL 1: B1 VL 1 with F46L, D55E
VH 2: B1 VH 2
VL 2: B1 VL 2

Kd [2]: 2.48 µM
Kd [3]: 1.8 µM
interferometry response value [4]: 0.4
interferometry response value [5]: 0.01
interferometry response value [6]: 0.56
interferometry response value [7]: 0.75
B4: mAb01-9994 (antibody, V domains shown)
VH: B1 VH 1
VL: B1 VL 1
notes: Bivalent IgG

Maximum stimulation (fold), FXa generation assay with bispecific antibody; maximum at 156 nM [1]: 7570 fold
B5: bimAb05-3755 (bispecific antibody, V domains shown)
VH 1: B1 VH 1
VL 1: B1 VL 1
VH 2: B1 VH 2 with S30T, N103H
VL 2: B1 VL 2 with Q52A, T56A, D94S, Q96R

Maximum stimulation (fold), FXa generation assay with bispecific antibody; maximum at 8170 nM [1]: 27400 fold
B6: bimAb05-3769 (bispecific antibody, V domains shown)
VH 1: B1 VH 1 with K54R, D62K, E75A
VL 1: B1 VL 1 with R53K, D55E
VH 2: B1 VH 2
VL 2: B1 VL 2

Stimulation Index, FXa generation assay, 3600 nM OA antibody [8]: 3670 fold
B7: one-armed (OA) mAb01-9978 (antibody, V domains shown)
VH: B1 VH 1
VL: B1 VL 1 with F46L, D55E

Kd [2]: 5.6 µM
Kd [3]: 3.57 µM
interferometry response value [4]: 0.24
interferometry response value [5]: 0.01
interferometry response value [6]: 0.34
interferometry response value [7]: 0.4
B8: mAb01-9978 (antibody, V domains shown)
VH: B1 VH 1
VL: B1 VL 1 with F46L, D55E
notes: Bivalent IgG

Maximum stimulation (fold), FXa generation assay with bispecific antibody; maximum at 7580 nM [1]: 35200 fold
B9: bimAb05-2114 (bispecific antibody, V domains shown)
VH 1: B1 VH 1 with K54R, D62K, E75A
VL 1: B1 VL 1 with R53K, D55E
VH 2: B1 VH 2 with V35S, F57Y, L115M
VL 2: B1 VL 2 with F92Y

Maximum stimulation (fold), FXa generation assay with bispecific antibody; maximum at 7820 nM [1]: 30400 fold
B10: bimAb05-2112 (bispecific antibody, V domains shown)
VH 1: B1 VH 1
VL 1: B1 VL 1
VH 2: B1 VH 2 with V35S, F57Y, L115M
VL 2: B1 VL 2 with F92Y

Stimulation Index, FXa generation assay, 3600 nM OA antibody [8]: 6440 fold
B11: one-armed (OA) mAb01-9933 (antibody, V domains shown)
VH: B1 VH 1 with R19K, H30D, E75A, M83L, V97A
VL: B1 VL 1 with V15A, R18E, F46L, R53K, T58V, S77D

Maximum stimulation (fold), FXa generation assay with bispecific antibody; maximum at 2690 nM [1]: 16300 fold
B12: bimAb05-3761 (bispecific antibody, V domains shown)
VH 1: B1 VH 1 with R19K, H30D, E75A, M83L, V97A
VL 1: B1 VL 1 with V15A, R18E, F46L, R53K, T58V, S77D
VH 2: B1 VH 2
VL 2: B1 VL 2

Maximum stimulation (fold), FXa generation assay with bispecific antibody; maximum at 7790 nM [1]: 14900 fold
B13: bimAb05-2115 (bispecific antibody, V domains shown)
VH 1: B1 VH 1
VL 1: B1 VL 1 with F46L, D55E
VH 2: B1 VH 2 with V35S, F57Y, L115M
VL 2: B1 VL 2 with F92Y

Kd [2]: 1.92 µM
Kd [3]: 1.26 µM
interferometry response value [4]: 0.44
interferometry response value [5]: 0.02
interferometry response value [6]: 0.6
interferometry response value [7]: 0.83
B14: mAb01-9985 (antibody, V domains shown)
VH: B1 VH 1 with K54R, D62K, E75A
VL: B1 VL 1 with R53K, D55E
notes: Bivalent IgG

Kd [2]: 2.39 µM
Kd [3]: 1.3 µM
interferometry response value [4]: 0.34
interferometry response value [5]: 0.02
interferometry response value [6]: 0.46
interferometry response value [7]: 0.59
B15: mAb01-9933 (antibody, V domains shown)
VH: B1 VH 1 with R19K, H30D, E75A, M83L, V97A
VL: B1 VL 1 with V15A, R18E, F46L, R53K, T58V, S77D
notes: Bivalent IgG

Kd [9]: 0.35 µM
B16: mAb01-8913 (antibody, V domains shown)
VH: B1 VH 2
VL: B1 VL 2 with P15A, Q52A, T56A, D94S, Q96R
notes: Bivalent IgG

Kd [9]: 1.37 µM
B17: mAb01-9772 (antibody, V domains shown)
VH: B1 VH 2 with V35S, F57Y, L115M
VL: B1 VL 2 with F92Y
notes: Bivalent IgG

interferometry response value [4]: 0.11
interferometry response value [5]: 1.6
interferometry response value [6]: 1.69
interferometry response value [7]: 2.11
B18: 224F3 (mAb01-1582) (antibody, V domains shown)
VH: QVQMQQSGAELVKPGASVKLSCKASGYTFTSQDINWVRQRPEQGLEWIGWIFPGDGSTKYNEKLKGKATLTTDKSSSTAFMQLSRLTSEDSAVYFCARSAYYRYDGSYYYAMDYWGQGTSVTVSS
VL: QIVLTQSPAIMSASLGEEITLTCSASSSVSYMLWYQQKSGTSPKLLIYTTSNLASGVPSRFSGTGSGTFYSLTISSVEAEDAADYYCHQWSSYPRTFGGGTKLEIKR
